B1: Interleukin-1 receptor-associated kinase 1 (Homo sapiens), P51617 (parent)
chain: MAGGPGPGEPAAPGAQHFLYEVPPWVMCRFYKVMDALEPADWCQFAALIVRDQTELRLCERSGQRTASVLWPWINRNARVADLVHILTHLQLLRARDIITAWHPPAPLPSPGTTAPRPSSIPAPAEAEAWSPRKLPSSASTFLSPAFPGSQTHSGPELGLVPSPASLWPPPPSPAPSSTKPGPESSVSLLQGARPFPFCWPLCEISRGTHNFSEELKIGEGGFGCVYRAVMRNTVYAVKRLKENADLEWTAVKQSFLTEVEQLSRFRHPNIVDFAGYCAQNGFYCLVYGFLPNGSLEDRLHCQTQACPPLSWPQRLDILLGTARAIQFLHQDSPSLIHGDIKSSNVLLDERLTPKLGDFGLARFSRFAGSSPSQSSMVARTQTVRGTLAYLPEEYIKTGRLAVDTDTFSFGVVVLETLAGQRAVKTHGARTKYLKDLVEEEAEEAGVALRSTQSTLQAGLAADAWAAPIAMQIYKKHLDPRPGPCPPELGLGLGQLACCCLHRRAKRRPPMTQVYERLEKLQAVVAGVPGHSEAASCIPPSPQENSYVSSTGRAHSGAAPWQPLAAPSGASAQAAEQLQRGPNQPVESDESLGGLSAALRSWHLTPSCPLDPAPLREAGCPQGDTAGESSWGSGPGSRPTAVEGLALGSSASSSSEPPQIIINPARQKMVQKLALYEDGALDSLQLLSSSSLPGLGLEQDRQGPEESDEFQS
partner: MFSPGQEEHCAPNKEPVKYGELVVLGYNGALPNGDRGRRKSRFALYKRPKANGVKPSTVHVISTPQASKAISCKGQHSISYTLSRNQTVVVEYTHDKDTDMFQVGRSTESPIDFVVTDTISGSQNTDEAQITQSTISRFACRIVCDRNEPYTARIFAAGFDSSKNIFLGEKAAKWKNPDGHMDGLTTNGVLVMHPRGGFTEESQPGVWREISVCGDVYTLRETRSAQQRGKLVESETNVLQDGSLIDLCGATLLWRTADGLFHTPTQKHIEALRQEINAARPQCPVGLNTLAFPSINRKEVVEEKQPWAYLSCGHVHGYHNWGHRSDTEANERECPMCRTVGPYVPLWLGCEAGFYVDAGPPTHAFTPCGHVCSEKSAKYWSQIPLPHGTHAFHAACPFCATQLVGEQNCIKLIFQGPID
B2: Interleukin-1 receptor-associated kinase 4 (Homo sapiens), Q9NWZ3 (parent)
chain: MNKPITPSTYVRCLNVGLIRKLSDFIDPQEGWKKLAVAIKKPSGDDRYNQFHIRRFEALLQTGKSPTSELLFDWGTTNCTVGDLVDLLIQNEFFAPASLLLPDAVPKTANTLPSKEAITVQQKQMPFCDKDRTLMTPVQNLEQSYMPPDSSSPENKSLEVSDTRFHSFSFYELKNVTNNFDERPISVGGNKMGEGGFGVVYKGYVNNTTVAVKKLAAMVDITTEELKQQFDQEIKVMAKCQHENLVELLGFSSDGDDLCLVYVYMPNGSLLDRLSCLDGTPPLSWHMRCKIAQGAANGINFLHENHHIHRDIKSANILLDEAFTAKISDFGLARASEKFAQTVMTSRIVGTTAYMAPEALRGEITPKSDIYSFGVVLLEIITGLPAVDEHREPQLLLDIKEEIEDEEKTIEDYIDKKMNDADSTSVEAMYSVASQCLHEKKNKRPDIKKVQQLLQEMTAS
partner: B1 partner

Variants of: B1
Details: with peli2_human PELI2, Q9HAT8

effect of a mutation on the interaction | Variant
disrupting interaction | K239S

Variants of: B2
Details: with peli2_human PELI2, Q9HAT8

effect of a mutation on the interaction | Variant
disrupting interaction | MNKPITPSTYVRCLNVGLIRKLSDFIDPQEGWKKLAVAIKKPSGDDRYNQFHIRRFEALLQTGKSPTSELLFDWGTTNCTVGDLVDLLIQNEFFAPASLLLPDAVPKTANTLPSKEAITVQQKQMPFCDKDRTLMTPVQNLEQSYMPPDSSSPENKSLEVSDTRFHSFSFYELKNVTNNFDERPISVGGNKMGEGGFGVVYKGYVNNTTVAVAKLAAMVDITTEELKQQFDQEIKVMAKCQHENLVELLGFSSDGDDLCLVYVYMPNGSLLDRLSCLDGTPPLSWHMRCKIAQGAANGINFLHENHHIHRDIKSANILLDEAFTAKISDFGLARASEKFAQTVMTSRIVGTTAYMAPEALRGEITPKSDIYSFGVVLLEIITGLPAVDEHREPQLLLDIKEEIEDEEKTIEDYIDKKMNDADSTSVEAMYSVASQCLHEKKNKRPDIKKVQQLLQEMTAS [K213A]
